Measured values as given in patent US8642555.

Tested on: albumin-bound form of EMC-Arg-Ser-Ser-Tyr-Tyr-Ser-Leu-PABC-DOXO (6)

prostate-specific antigen (PSA)
PSA-mediated cleavage monitored by HPLC (enzyme activity): cleaved efficiently within a few hours
